Here are results for 2 molecules from US20250313621A1 (NXERA PHARMA UK, published 2025).

Where a chain is given by its changes, count along the chain named.

For this assay, the target named is T1, Cynomolgus PAR2 on BacMam-infected HEK293 cells (cynomolgus).
T1 construct: whole, on cells; also called cyno PAR-2; Cyno PAR2
The assay is described as follows: flow cytometry on HEK293F-cynoPAR2 (3.0E+06 cells/mL, w/ NaN3), overnight at about 5 C, S/BG [continued]. A general note: In flow cytometry, cells or beads pass a laser one at a time.

B1: Fab Y022870 (Fab, V domains shown)
VH: EVQLLESGGGLVQPGGSLRLSCAASGFSFSRYAITWVRQAPGKGLEWVSTISALGLETYYAESVRGRFTISRDNSKNTLYLQMNSLRAEDTAVYYCARGFHYTHSGKRYYYPFDIWGQGTLVTVSS
VL: QSALTQPASVSGSPGQSITISCTGTSSDVGSYNLVSWYQQHPGKAPKLMIYEGSKRPSGVSNRFSGSKSGNTASLTISGLQAEDEADYYCSQYATFIAFAVFGGGTKLTVLG
A word on the EC50 (read off the curve): it is the concentration giving half of the maximal effect. A low value points to an effect from little substance. Turning to B1, the “EC50 (read off the curve)” value is about 2 nM.

B2: Fab Y022883 (Fab, V domains shown)
VH: B1 VH with S30T, T35S, T50V, A53G, L54H, L56S, T58A, Y59N, R65K
VL: B1 VL
For B2, the 50% effective concentration (EC50 (read off the curve)) is about 4 nM.
